Source: paper PMC5412928, “Engineered ligand‐based VEGFR antagonists with increased receptor binding affinity more effectively inhibit angiogenesis” (Bioengineering & Translational Medicine, 2017)

B1: scVEGFmut (ligand)
chain: APMAEGGGQNHHEVVKAMDVYQRSYCHPIETLVDIFQEYPDEIEYIFKPSCVPLMRCGGCCNDAGLECVPTEESNITMQIMRIKPHQGQHIGEMSFLQHNKCECRPKKDGSTSGSGKSSEGKGAPMAEGGGQNHHEVVKFMDVYQRSYCHPIETLVDIFQEYPDEIEYAFKPSCVPLMRCGGCCNDEGLECVPTEESNITMQIMRAKPHQGQHIGEMSFLQHNKCECRPKKD
B2: scVEGFwt (ligand)
chain: APMAEGGGQNHHEVVKFMDVYQRSYCHPIETLVDIFQEYPDEIEYIFKPSCVPLMRCGGCCNDEGLECVPTEESNITMQIMRIKPHQGQHIGEMSFLQHNKCECRPKKDGSTSGSGKSSEGKGAPMAEGGGQNHHEVVKFMDVYQRSYCHPIETLVDIFQEYPDEIEYIFKPSCVPLMRCGGCCNDEGLECVPTEESNITMQIMRIKPHQGQHIGEMSFLQHNKCECRPKKD

What was measured:
[1] = target: T1, human VEGFR2 on PAE/KDR cells (human, UniProt P35968 20-1356); assay: flow cytometry on cells; soluble FLAG-tagged scVEGF variants titrated on 50,000 PAE/KDR cells in integrin binding buffer (20 mM Tris pH 7.5, 100 mM NaCl, 1 mM MgCl2, 1 mM MnCl2, 2 mM CaCl2, 1 mg/ml BSA), 4°C, 4–6 hr; phycoerythrin anti-FLAG antibody; sigmoidal fit of mean fluorescence; details: one partner purified
T1 construct: VEGFR2 (KDR), human, stably expressed on porcine aortic endothelial cells; also called vascular endothelial growth factor receptor 2; source: porcine aortic endothelial (PAE) cells stably transfected to express human VEGFR2 (PAE/KDR cells), on cells

VEGFR2 on HUVECs = target: T2, VEGFR2 on HUVECs (human (endogenous in HUVECs), UniProt P35968 20-1356); assay: flow cytometry on cells; apparent; soluble FLAG-tagged scVEGF variants titrated on 50,000 serum-starved HUVECs (bear VEGFR2 and αvβ3 integrin) in integrin binding buffer, 4°C, 4–6 hr; phycoerythrin anti-FLAG antibody; sigmoidal fit; details: one partner purified
T2 construct: VEGFR2, endogenous on HUVECs; HUVECs also bear αvβ3 integrin; source: endogenous, on human umbilical vein endothelial cells (HUVECs)
T2 sequence (P35968 20-1356): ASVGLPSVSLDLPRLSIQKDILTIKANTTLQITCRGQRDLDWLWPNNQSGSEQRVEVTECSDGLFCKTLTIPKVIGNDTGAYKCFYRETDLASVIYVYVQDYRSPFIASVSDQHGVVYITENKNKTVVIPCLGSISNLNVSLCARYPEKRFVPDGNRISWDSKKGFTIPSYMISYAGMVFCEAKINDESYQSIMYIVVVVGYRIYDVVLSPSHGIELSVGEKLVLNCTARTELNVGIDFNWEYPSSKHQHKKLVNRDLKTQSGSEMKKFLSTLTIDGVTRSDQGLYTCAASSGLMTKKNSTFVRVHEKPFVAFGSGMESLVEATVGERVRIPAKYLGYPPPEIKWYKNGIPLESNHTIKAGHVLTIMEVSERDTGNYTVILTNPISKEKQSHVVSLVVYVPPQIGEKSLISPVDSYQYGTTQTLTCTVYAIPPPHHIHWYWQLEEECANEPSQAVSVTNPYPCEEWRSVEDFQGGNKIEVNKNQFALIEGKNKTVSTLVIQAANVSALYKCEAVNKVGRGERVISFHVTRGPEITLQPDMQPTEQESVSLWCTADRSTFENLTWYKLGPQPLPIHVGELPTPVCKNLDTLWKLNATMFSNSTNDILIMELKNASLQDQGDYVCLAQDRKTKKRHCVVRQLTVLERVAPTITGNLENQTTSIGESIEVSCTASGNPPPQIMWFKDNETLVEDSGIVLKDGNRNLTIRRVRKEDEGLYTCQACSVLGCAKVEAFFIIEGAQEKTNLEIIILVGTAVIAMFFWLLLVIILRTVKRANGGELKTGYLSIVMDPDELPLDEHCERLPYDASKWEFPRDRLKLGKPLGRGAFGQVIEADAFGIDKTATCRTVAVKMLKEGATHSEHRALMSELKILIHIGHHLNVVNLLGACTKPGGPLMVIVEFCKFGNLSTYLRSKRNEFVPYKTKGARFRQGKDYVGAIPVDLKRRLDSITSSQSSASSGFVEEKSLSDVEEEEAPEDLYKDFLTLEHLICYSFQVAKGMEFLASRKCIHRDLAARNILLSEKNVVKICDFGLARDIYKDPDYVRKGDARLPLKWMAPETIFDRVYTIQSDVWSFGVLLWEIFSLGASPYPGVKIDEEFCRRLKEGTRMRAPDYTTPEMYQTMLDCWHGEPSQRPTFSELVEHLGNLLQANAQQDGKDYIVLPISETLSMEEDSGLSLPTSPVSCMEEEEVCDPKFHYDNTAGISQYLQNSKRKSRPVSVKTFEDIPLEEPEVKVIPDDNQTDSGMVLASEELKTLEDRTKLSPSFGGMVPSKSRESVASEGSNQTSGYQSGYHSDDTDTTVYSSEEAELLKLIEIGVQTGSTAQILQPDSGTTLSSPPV

T1 sequence (P35968 20-1356): as above

Binder | Kd [1] [nM] | fold tighter binding of scVEGFmE7I than of scVEGFmut (VEGFR2 on HUVECs) [fold] | Kd (VEGFR2 on HUVECs) [nM]
B1 | 27 | ≥ 330 | –
B2 | – | – | 3.8
